Biological target: IL12 receptor on bystander (GFP+) T cells (human) (UniProt P42701)
Assay: cell-based or functional assay

Chain of IL12 receptor on bystander (GFP+) T cells (human) (Q99665 24-862, chain 2 of 2, other chains not shown): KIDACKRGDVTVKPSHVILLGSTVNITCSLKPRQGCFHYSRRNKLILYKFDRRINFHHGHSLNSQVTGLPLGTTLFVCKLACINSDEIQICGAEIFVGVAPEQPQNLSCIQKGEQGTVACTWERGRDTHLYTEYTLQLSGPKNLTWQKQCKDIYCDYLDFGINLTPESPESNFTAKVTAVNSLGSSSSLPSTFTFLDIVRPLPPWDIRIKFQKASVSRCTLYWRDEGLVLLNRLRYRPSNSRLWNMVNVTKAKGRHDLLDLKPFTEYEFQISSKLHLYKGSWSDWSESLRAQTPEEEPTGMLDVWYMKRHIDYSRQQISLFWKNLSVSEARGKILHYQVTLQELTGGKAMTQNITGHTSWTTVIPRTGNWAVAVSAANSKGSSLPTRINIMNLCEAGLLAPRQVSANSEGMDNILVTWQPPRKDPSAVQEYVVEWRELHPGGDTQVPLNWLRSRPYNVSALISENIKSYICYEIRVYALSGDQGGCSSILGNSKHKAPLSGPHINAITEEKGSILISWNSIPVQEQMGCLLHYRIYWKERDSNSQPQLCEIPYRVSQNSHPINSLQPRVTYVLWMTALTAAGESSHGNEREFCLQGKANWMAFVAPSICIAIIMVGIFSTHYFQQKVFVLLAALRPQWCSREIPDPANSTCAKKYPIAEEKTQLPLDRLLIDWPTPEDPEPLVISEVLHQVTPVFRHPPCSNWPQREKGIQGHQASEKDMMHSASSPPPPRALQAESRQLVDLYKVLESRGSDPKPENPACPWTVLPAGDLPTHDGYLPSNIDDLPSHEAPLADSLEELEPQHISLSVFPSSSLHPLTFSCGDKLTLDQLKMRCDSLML
Chain of secreted IL12 encoded by OT-001356 (ORF2: p40 signal sequence; p40 (23-328 of WT); Linker ((G4S)3); p35 (57-253 of WT); BamHI (GS)) (ligand) (chain): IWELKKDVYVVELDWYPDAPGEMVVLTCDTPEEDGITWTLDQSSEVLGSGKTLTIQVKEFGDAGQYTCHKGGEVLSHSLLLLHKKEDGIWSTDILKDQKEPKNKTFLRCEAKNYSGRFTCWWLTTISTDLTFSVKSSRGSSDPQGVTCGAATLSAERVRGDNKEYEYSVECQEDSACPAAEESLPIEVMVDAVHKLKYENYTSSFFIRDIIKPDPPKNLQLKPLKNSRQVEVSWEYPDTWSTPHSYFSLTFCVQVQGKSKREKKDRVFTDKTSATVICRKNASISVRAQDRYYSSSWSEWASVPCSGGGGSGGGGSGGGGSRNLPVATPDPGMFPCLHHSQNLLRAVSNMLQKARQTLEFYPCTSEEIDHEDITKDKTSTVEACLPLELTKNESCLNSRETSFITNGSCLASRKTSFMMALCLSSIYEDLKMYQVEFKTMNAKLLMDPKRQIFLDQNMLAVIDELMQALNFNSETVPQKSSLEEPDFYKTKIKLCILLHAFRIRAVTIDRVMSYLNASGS

Substance: membrane bound IL12 encoded by OT-001895 (p40 (23-328 of WT); (G4S)3; p35 (57-253 of WT); (GS)15; CD8a Hinge and Transmembrane Domain; GS) (ligand)
- Bystander effect (pSTAT4 geometric MFI on GFP+ T cells in 1 hour supernatants), ratio 1.1 (geometric MFI): -136
- Bystander effect (pSTAT4 geometric MFI on GFP+ T cells in 1 hour supernatants), ratio 2.1 (geometric MFI): -238
- Bystander effect (pSTAT4 geometric MFI on GFP+ T cells in 1 hour supernatants), ratio 4.3 (geometric MFI): -277
- Bystander effect (pSTAT4 geometric MFI on GFP+ T cells in 1 hour supernatants), ratio 8.5 (geometric MFI): -1180
- Bystander effect (pSTAT4 geometric MFI on GFP+ T cells in 1 hour supernatants), ratio 17.1 (geometric MFI): -3000
- Bystander effect (pSTAT4 geometric MFI on GFP+ T cells in 1 hour supernatants), ratio 34.1 (geometric MFI): -3720
- Transactivation (pSTAT4 geometric MFI on GFP+ cells in co-culture), ratio 1.1 (geometric MFI): 4500
- Transactivation (pSTAT4 geometric MFI on GFP+ cells in co-culture), ratio 2.1 (geometric MFI): 6100
- Transactivation (pSTAT4 geometric MFI on GFP+ cells in co-culture), ratio 4.3 (geometric MFI): 7170
- Transactivation (pSTAT4 geometric MFI on GFP+ cells in co-culture), ratio 8.5 (geometric MFI): 8200
- Transactivation (pSTAT4 geometric MFI on GFP+ cells in co-culture), ratio 17.1 (geometric MFI): 7720
- Transactivation (pSTAT4 geometric MFI on GFP+ cells in co-culture); table head says ratio of 64, paragraph 725 gives 34.1 (geometric MFI): 7700

Substance: membrane bound IL12 encoded by OT-002011 (B7.1 transmembrane domain and short CD8 hinge domain) (ligand)
- Bystander effect (pSTAT4 geometric MFI on GFP+ T cells in 1 hour supernatants), ratio 2.4 (geometric MFI): -642
- Bystander effect (pSTAT4 geometric MFI on GFP+ T cells in 1 hour supernatants), ratio 4.7 (geometric MFI): -566
- Bystander effect (pSTAT4 geometric MFI on GFP+ T cells in 1 hour supernatants), ratio 9.5 (geometric MFI): -1130
- Bystander effect (pSTAT4 geometric MFI on GFP+ T cells in 1 hour supernatants), ratio 18.9 (geometric MFI): -1380
- Bystander effect (pSTAT4 geometric MFI on GFP+ T cells in 1 hour supernatants), ratio 37.9 (geometric MFI): -2880
- Bystander effect (pSTAT4 geometric MFI on GFP+ T cells in 1 hour supernatants), ratio 75.8 (geometric MFI): -3530
- Transactivation (pSTAT4 geometric MFI on GFP+ cells in co-culture), ratio 2.4 (geometric MFI): 5190
- Transactivation (pSTAT4 geometric MFI on GFP+ cells in co-culture), ratio 4.7 (geometric MFI): 6680
- Transactivation (pSTAT4 geometric MFI on GFP+ cells in co-culture), ratio 9.5 (geometric MFI): 7760
- Transactivation (pSTAT4 geometric MFI on GFP+ cells in co-culture), ratio 18.9 (geometric MFI): 8320
- Transactivation (pSTAT4 geometric MFI on GFP+ cells in co-culture), ratio 37.9 (geometric MFI): 8030
- Transactivation (pSTAT4 geometric MFI on GFP+ cells in co-culture); table head says ratio of 64, paragraph 725 gives 75.8 (geometric MFI): 8090

Substance: membrane bound IL12 encoded by OT-002096 (B7.1 TM domain and IgG1 CH2-CH3 domain as a hinge domain) (ligand)
- Bystander effect (pSTAT4 geometric MFI on GFP+ T cells in 1 hour supernatants), ratio 2.4 (geometric MFI): 405
- Bystander effect (pSTAT4 geometric MFI on GFP+ T cells in 1 hour supernatants), ratio 4.8 (geometric MFI): 1050
- Bystander effect (pSTAT4 geometric MFI on GFP+ T cells in 1 hour supernatants), ratio 9.7 (geometric MFI): 1650
- Bystander effect (pSTAT4 geometric MFI on GFP+ T cells in 1 hour supernatants), ratio 19.4 (geometric MFI): 1470
- Bystander effect (pSTAT4 geometric MFI on GFP+ T cells in 1 hour supernatants), ratio 38.7 (geometric MFI): 1470
- Bystander effect (pSTAT4 geometric MFI on GFP+ T cells in 1 hour supernatants), ratio 77.5 (geometric MFI): 955
- Transactivation (pSTAT4 geometric MFI on GFP+ cells in co-culture), ratio 2.4 (geometric MFI): 2620
- Transactivation (pSTAT4 geometric MFI on GFP+ cells in co-culture), ratio 4.8 (geometric MFI): 3250
- Transactivation (pSTAT4 geometric MFI on GFP+ cells in co-culture), ratio 9.7 (geometric MFI): 4030
- Transactivation (pSTAT4 geometric MFI on GFP+ cells in co-culture), ratio 19.4 (geometric MFI): 4180
- Transactivation (pSTAT4 geometric MFI on GFP+ cells in co-culture), ratio 38.7 (geometric MFI): 4860
- Transactivation (pSTAT4 geometric MFI on GFP+ cells in co-culture); table head says ratio of 64, paragraph 725 gives 77.5 (geometric MFI): 5220

Substance: membrane bound IL12 encoded by OT-002111 (B7.1 TM domain and B7.1 C2 domain as a hinge domain) (ligand)
- Bystander effect (pSTAT4 geometric MFI on GFP+ T cells in 1 hour supernatants), ratio 1.5 (geometric MFI): -59
- Bystander effect (pSTAT4 geometric MFI on GFP+ T cells in 1 hour supernatants), ratio 2.9 (geometric MFI): 852
- Bystander effect (pSTAT4 geometric MFI on GFP+ T cells in 1 hour supernatants), ratio 5.9 (geometric MFI): 437
- Bystander effect (pSTAT4 geometric MFI on GFP+ T cells in 1 hour supernatants), ratio 11.8 (geometric MFI): -58
- Bystander effect (pSTAT4 geometric MFI on GFP+ T cells in 1 hour supernatants), ratio 23.6 (geometric MFI): -1010
- Bystander effect (pSTAT4 geometric MFI on GFP+ T cells in 1 hour supernatants), ratio 47.1 (geometric MFI): -4240
- Transactivation (pSTAT4 geometric MFI on GFP+ cells in co-culture), ratio 1.5 (geometric MFI): 4660
- Transactivation (pSTAT4 geometric MFI on GFP+ cells in co-culture), ratio 2.9 (geometric MFI): 6540
- Transactivation (pSTAT4 geometric MFI on GFP+ cells in co-culture), ratio 5.9 (geometric MFI): 7210
- Transactivation (pSTAT4 geometric MFI on GFP+ cells in co-culture), ratio 11.8 (geometric MFI): 7660
- Transactivation (pSTAT4 geometric MFI on GFP+ cells in co-culture), ratio 23.6 (geometric MFI): 7630
- Transactivation (pSTAT4 geometric MFI on GFP+ cells in co-culture); table head says ratio of 64, paragraph 725 gives 47.1 (geometric MFI): 5460

Substance: membrane bound IL12 encoded by OT-002112 (B7.1 TM domain and FcgammaR2b (Fcgr2b) as a hinge domain) (ligand)
- Bystander effect (pSTAT4 geometric MFI on GFP+ T cells in 1 hour supernatants), ratio 1.3 (geometric MFI): -1
- Bystander effect (pSTAT4 geometric MFI on GFP+ T cells in 1 hour supernatants), ratio 2.5 (geometric MFI): -818
- Bystander effect (pSTAT4 geometric MFI on GFP+ T cells in 1 hour supernatants), ratio 5 (geometric MFI): -232
- Bystander effect (pSTAT4 geometric MFI on GFP+ T cells in 1 hour supernatants), ratio 10.1 (geometric MFI): -988
- Bystander effect (pSTAT4 geometric MFI on GFP+ T cells in 1 hour supernatants), ratio 20.2 (geometric MFI): -1400
- Bystander effect (pSTAT4 geometric MFI on GFP+ T cells in 1 hour supernatants), ratio 40.4 (geometric MFI): -2660
- Transactivation (pSTAT4 geometric MFI on GFP+ cells in co-culture), ratio 1.3 (geometric MFI): 5110
- Transactivation (pSTAT4 geometric MFI on GFP+ cells in co-culture), ratio 2.5 (geometric MFI): 6070
- Transactivation (pSTAT4 geometric MFI on GFP+ cells in co-culture), ratio 5 (geometric MFI): 7760
- Transactivation (pSTAT4 geometric MFI on GFP+ cells in co-culture), ratio 10.1 (geometric MFI): 8120
- Transactivation (pSTAT4 geometric MFI on GFP+ cells in co-culture), ratio 20.2 (geometric MFI): 8420
- Transactivation (pSTAT4 geometric MFI on GFP+ cells in co-culture); table head says ratio of 64, paragraph 725 gives 40.4 (geometric MFI): 8020

Substance: secreted IL12 encoded by OT-001356 (ORF2: p40 signal sequence; p40 (23-328 of WT); Linker ((G4S)3); p35 (57-253 of WT); BamHI (GS)) (ligand)
- Bystander effect (pSTAT4 geometric MFI on GFP+ T cells in 1 hour supernatants), CAR-IL12+:GFP+ ratio 73.9 (geometric MFI): -2620
- Bystander effect (pSTAT4 geometric MFI on GFP+ T cells in 1 hour supernatants), ratio 2.3 (geometric MFI): -1090
- Bystander effect (pSTAT4 geometric MFI on GFP+ T cells in 1 hour supernatants), ratio 4.6 (geometric MFI): -518
- Bystander effect (pSTAT4 geometric MFI on GFP+ T cells in 1 hour supernatants), ratio 9.2 (geometric MFI): -86
- Bystander effect (pSTAT4 geometric MFI on GFP+ T cells in 1 hour supernatants), ratio 18.5 (geometric MFI): -226
- Bystander effect (pSTAT4 geometric MFI on GFP+ T cells in 1 hour supernatants), ratio 37 (geometric MFI): -1400
- Transactivation (pSTAT4 geometric MFI on GFP+ cells in co-culture), ratio 2.3 (geometric MFI): 2840
- Transactivation (pSTAT4 geometric MFI on GFP+ cells in co-culture), ratio 4.6 (geometric MFI): 4370
- Transactivation (pSTAT4 geometric MFI on GFP+ cells in co-culture), ratio 9.2 (geometric MFI): 5570
- Transactivation (pSTAT4 geometric MFI on GFP+ cells in co-culture), ratio 18.5 (geometric MFI): 6420
- Transactivation (pSTAT4 geometric MFI on GFP+ cells in co-culture), ratio 37 (geometric MFI): 6940
- Transactivation (pSTAT4 geometric MFI on GFP+ cells in co-culture); table head says CAR-IL12+:GFP+ ratio of 64, paragraph 725 gives 73.9 (geometric MFI): 6450

Source: patent US20220056092A1
